Experimental data from US20230183713A1, “SITE-SPECIFIC RECOMBINASES FOR EFFICIENT AND SPECIFIC GENOME EDITING” (TECHNISCHE UNIVERSITÄt DRESDEN, published 2023).

T1: Cre recombinase monomer with K201N mutation
T1 chain: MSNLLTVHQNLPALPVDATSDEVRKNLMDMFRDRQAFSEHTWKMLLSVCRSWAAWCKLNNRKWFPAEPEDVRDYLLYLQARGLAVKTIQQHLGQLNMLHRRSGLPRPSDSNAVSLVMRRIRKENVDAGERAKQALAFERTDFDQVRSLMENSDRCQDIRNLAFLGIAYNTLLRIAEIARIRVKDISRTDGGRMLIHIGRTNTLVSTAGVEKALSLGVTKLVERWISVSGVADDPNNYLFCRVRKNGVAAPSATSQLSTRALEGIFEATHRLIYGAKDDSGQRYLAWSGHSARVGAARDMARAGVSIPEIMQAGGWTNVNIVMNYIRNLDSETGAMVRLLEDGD

T2: Cre recombinase monomer with W315N mutation
T2 chain: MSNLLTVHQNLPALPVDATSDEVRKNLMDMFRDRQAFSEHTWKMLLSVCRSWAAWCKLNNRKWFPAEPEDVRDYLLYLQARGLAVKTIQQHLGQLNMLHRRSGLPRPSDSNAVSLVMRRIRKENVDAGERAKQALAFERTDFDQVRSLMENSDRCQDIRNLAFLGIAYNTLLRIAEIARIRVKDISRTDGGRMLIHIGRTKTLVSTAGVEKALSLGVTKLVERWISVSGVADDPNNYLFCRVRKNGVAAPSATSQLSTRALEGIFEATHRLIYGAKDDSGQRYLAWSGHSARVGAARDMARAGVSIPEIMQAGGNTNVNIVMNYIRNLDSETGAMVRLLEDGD

T3: Cre recombinase monomer with K201R mutation
T3 chain: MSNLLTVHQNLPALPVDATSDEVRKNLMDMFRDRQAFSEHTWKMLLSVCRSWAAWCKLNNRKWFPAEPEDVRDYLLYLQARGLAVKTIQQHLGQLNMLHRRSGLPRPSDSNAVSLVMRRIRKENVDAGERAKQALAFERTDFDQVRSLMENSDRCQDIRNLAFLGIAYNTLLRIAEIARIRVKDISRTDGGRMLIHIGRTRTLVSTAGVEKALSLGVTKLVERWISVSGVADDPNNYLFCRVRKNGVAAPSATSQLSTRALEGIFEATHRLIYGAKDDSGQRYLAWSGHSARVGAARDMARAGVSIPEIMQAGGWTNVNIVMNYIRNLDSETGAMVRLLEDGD

T4: Cre recombinase monomer with Q311R mutation
T4 chain: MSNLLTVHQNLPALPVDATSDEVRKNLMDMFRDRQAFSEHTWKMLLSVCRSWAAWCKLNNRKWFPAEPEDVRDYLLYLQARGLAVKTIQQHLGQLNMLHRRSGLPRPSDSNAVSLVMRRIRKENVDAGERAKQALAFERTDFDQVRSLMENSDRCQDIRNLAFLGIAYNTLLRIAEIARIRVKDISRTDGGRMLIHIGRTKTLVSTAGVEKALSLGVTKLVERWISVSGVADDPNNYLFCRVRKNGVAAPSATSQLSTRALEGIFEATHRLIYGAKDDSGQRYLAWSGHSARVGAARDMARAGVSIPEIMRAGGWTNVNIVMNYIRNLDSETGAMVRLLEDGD

T5: Cre recombinase monomer with E176M mutation
T5 chain: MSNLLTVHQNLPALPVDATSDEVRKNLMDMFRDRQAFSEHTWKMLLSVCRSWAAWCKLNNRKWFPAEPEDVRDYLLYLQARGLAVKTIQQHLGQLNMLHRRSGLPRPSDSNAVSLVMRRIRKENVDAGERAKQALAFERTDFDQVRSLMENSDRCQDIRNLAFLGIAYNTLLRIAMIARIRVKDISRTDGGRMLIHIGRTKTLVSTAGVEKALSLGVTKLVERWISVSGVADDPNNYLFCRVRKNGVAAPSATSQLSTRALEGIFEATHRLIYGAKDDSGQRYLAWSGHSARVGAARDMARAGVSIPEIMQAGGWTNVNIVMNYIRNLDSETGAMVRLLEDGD

T6: Cre recombinase monomer with E176I mutation
T6 chain: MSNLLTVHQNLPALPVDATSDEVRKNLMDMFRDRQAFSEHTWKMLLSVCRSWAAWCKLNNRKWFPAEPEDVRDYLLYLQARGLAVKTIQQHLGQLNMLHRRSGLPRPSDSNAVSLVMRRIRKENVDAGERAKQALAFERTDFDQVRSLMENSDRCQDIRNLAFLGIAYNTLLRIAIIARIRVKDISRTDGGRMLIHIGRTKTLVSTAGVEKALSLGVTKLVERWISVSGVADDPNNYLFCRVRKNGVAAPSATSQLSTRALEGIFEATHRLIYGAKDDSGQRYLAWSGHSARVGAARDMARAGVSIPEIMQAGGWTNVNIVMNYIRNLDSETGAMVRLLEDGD

T7: Cre recombinase monomer with K201Q mutation
T7 chain: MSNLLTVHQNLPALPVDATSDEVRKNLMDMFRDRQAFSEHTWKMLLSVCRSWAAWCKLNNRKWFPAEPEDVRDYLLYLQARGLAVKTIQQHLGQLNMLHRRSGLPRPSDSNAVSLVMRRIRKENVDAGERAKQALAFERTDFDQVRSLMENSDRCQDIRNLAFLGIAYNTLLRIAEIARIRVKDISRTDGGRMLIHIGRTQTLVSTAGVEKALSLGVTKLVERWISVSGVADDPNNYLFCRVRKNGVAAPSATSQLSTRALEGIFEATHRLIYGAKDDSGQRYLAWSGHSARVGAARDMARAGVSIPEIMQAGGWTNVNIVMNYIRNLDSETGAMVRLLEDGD

T8: Cre recombinase monomer with E176V mutation
T8 chain: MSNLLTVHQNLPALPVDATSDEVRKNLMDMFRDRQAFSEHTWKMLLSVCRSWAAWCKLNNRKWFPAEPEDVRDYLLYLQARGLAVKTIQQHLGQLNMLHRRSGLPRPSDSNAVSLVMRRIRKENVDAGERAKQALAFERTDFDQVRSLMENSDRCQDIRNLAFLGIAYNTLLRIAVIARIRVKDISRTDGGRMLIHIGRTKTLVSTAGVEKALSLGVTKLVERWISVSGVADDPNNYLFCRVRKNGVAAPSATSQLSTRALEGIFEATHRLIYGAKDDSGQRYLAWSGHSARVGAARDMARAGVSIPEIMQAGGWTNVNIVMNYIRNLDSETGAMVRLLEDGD

T9: Cre recombinase monomer with E176Y mutation
T9 chain: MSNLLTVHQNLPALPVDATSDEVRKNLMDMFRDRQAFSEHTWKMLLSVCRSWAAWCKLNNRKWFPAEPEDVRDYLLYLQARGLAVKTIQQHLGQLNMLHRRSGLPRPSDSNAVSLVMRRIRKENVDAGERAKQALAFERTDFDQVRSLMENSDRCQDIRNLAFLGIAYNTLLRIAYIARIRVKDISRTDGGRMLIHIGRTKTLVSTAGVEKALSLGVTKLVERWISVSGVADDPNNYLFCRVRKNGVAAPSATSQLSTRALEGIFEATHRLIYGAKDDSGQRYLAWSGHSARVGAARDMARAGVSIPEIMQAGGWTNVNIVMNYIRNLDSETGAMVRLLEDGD

T10: Cre recombinase monomer with E176W mutation
T10 chain: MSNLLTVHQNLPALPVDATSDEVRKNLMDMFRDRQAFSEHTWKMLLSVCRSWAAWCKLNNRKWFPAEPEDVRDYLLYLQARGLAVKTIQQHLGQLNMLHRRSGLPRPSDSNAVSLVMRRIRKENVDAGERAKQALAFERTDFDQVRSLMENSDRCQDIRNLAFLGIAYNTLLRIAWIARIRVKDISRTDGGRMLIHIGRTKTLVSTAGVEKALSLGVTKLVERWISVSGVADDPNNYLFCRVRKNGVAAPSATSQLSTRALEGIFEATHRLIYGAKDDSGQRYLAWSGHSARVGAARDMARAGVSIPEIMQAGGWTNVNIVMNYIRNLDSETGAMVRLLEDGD

T11: Cre recombinase monomer with Y324T mutation
T11 chain: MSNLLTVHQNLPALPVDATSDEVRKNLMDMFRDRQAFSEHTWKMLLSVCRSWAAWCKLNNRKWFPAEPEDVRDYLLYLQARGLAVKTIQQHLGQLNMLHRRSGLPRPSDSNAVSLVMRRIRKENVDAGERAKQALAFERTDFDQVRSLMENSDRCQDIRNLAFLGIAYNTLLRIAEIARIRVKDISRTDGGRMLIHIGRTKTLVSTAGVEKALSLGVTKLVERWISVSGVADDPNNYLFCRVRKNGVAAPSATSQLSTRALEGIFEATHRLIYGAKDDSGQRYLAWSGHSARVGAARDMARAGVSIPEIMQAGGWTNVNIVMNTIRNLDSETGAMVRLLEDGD

T12: Cre recombinase monomer with K201Y mutation
T12 chain: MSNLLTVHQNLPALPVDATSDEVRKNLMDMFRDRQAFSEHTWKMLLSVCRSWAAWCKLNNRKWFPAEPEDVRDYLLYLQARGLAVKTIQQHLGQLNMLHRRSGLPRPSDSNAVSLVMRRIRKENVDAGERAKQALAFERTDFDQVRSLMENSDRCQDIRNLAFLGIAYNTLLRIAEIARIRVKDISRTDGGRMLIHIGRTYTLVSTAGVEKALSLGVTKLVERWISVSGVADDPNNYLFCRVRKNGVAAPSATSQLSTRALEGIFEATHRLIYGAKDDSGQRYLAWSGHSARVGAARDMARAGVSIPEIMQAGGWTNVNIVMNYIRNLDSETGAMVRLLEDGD


Assays:
[1] = target: T1, Cre recombinase monomer with K201N …
[2] = target: T2, Cre recombinase monomer with W315N …
[3] = target: T3, Cre recombinase monomer with K201R …
[4] = target: T4, Cre recombinase monomer with Q311R …
[5] = target: T5, Cre recombinase monomer with E176M …
[6] = target: T6, Cre recombinase monomer with E176I …
[7] = target: T7, Cre recombinase monomer with K201Q …
[8] = target: T8, Cre recombinase monomer with E176V …
[9] = target: T9, Cre recombinase monomer with E176Y …
[10] = target: T10, Cre recombinase monomer with E176W …
[11] = target: T11, Cre recombinase monomer with Y324T …
[12] = target: T12, Cre recombinase monomer with K201Y …

Protein	Median dimer activity (recombination on loxP) [1] [%]	Median dimer activity (recombination on loxP) [2] [%]	Median dimer activity (recombination on loxP) [3] [%]	Median dimer activity (recombination on loxP) [4] [%]	Median dimer activity (recombination on loxP) [5] [%]	Median dimer activity (recombination on loxP) [6] [%]	Median dimer activity (recombination on loxP) [7] [%]	Median dimer activity (recombination on loxP) [8] [%]	Median dimer activity (recombination on loxP) [9] [%]	Median dimer activity (recombination on loxP) [10] [%]	Median dimer activity (recombination on loxP) [11] [%]	Median dimer activity (recombination on loxP) [12] [%]
Cre recombinase monomer with E129R mutation (protein) MSNLLTVHQNLPALPVDATSDEVRKNLMDMFRDRQAFSEHTWKMLLSVCRSWAAWCKLNNRKWFPAEPEDVRDYLLYLQARGLAVKTIQQHLGQLNMLHRRSGLPRPSDSNAVSLVMRRIRKENVDAGRRAKQALAFERTDFDQVRSLMENSDRCQDIRNLAFLGIAYNTLLRIAEIARIRVKDISRTDGGRMLIHIGRTKTLVSTAGVEKALSLGVTKLVERWISVSGVADDPNNYLFCRVRKNGVAAPSATSQLSTRALEGIFEATHRLIYGAKDDSGQRYLAWSGHSARVGAARDMARAGVSIPEIMQAGGWTNVNIVMNYIRNLDSETGAMVRLLEDGD	35	30	26	93	–	–	–	–	–	–	–	–
Cre recombinase monomer with R173F mutation (protein) MSNLLTVHQNLPALPVDATSDEVRKNLMDMFRDRQAFSEHTWKMLLSVCRSWAAWCKLNNRKWFPAEPEDVRDYLLYLQARGLAVKTIQQHLGQLNMLHRRSGLPRPSDSNAVSLVMRRIRKENVDAGERAKQALAFERTDFDQVRSLMENSDRCQDIRNLAFLGIAYNTLLFIAEIARIRVKDISRTDGGRMLIHIGRTKTLVSTAGVEKALSLGVTKLVERWISVSGVADDPNNYLFCRVRKNGVAAPSATSQLSTRALEGIFEATHRLIYGAKDDSGQRYLAWSGHSARVGAARDMARAGVSIPEIMQAGGWTNVNIVMNYIRNLDSETGAMVRLLEDGD	–	–	–	84	38	25	39	82	40	30	–	–
Cre recombinase monomer with R173G mutation (protein) MSNLLTVHQNLPALPVDATSDEVRKNLMDMFRDRQAFSEHTWKMLLSVCRSWAAWCKLNNRKWFPAEPEDVRDYLLYLQARGLAVKTIQQHLGQLNMLHRRSGLPRPSDSNAVSLVMRRIRKENVDAGERAKQALAFERTDFDQVRSLMENSDRCQDIRNLAFLGIAYNTLLGIAEIARIRVKDISRTDGGRMLIHIGRTKTLVSTAGVEKALSLGVTKLVERWISVSGVADDPNNYLFCRVRKNGVAAPSATSQLSTRALEGIFEATHRLIYGAKDDSGQRYLAWSGHSARVGAARDMARAGVSIPEIMQAGGWTNVNIVMNYIRNLDSETGAMVRLLEDGD	–	–	–	95	–	–	–	–	–	–	32	95
